Data set [1] concerns the molecule itself. The data set is described as follows: native gel or EMSA; native PAGE of purified CENP-E483-2mNeon; monomer to dimer. Background: A gel shift assay detects complexes by their altered migration in electrophoresis.
Data set [2] deals with the molecule itself. The data set can be described thus: single-molecule photobleaching step counting and initial intensity analysis (TIRF); 0.5 nM fluorescently tagged motor adsorbed non-specifically to silanized coverslips, BRB80 with oxygen scavenger mix, 30°C; monomer to dimer.

This is an account of results in PMC8905165, “Reconstitution of an active human CENP-E motor” (Open Biology, 2022).

B1: CENP-E483-2mNeon (domain or fragment, human, UniProt Q02224 1-483, looked up)
chain: MAEEGAVAVCVRVRPLNSREESLGETAQVYWKTDNNVIYQVDGSKSFNFDRVFHGNETTKNVYEEIAAPIIDSAIQGYNGTIFAYGQTASGKTYTMMGSEDHLGVIPRAIHDIFQKIKKFPDREFLLRVSYMEIYNETITDLLCGTQKMKPLIIREDVNRNVYVADLTEEVVYTSEMALKWITKGEKSRHYGETKMNQRSSRSHTIFRMILESREKGEPSNCEGSVKVSHLNLVDLAGSERAAQTGAAGVRLKEGCNINRSLFILGQVIKKLSDGQVGGFINYRDSKLTRILQNSLGGNAKTRIICTITPVSFDETLTALQFASTAKYMKNTPYVNEVSTDEALLKRYRKEIMDLKKQLEEVSLETRAQAMEKDQLAQLLEEKDLLQKVQNEKIENLTRMLVTSSSLTLQQELKAKRKRRVTWCLGKINKMKNSNYADQFNIPTNITTKTHKLSINLLREIDESVCSESDVFSNTLDTLSEIE
notes: human CENP-E, N-terminal truncation with the motor domain and the first predicted coiled-coil (334-401), ending at residue 483; the start at residue 1 is printed only for the ColabFold input (1-483); Codon-optimised synthetic gene in pFastBac1; A mixture of monomers and dimers in solution; also called truncated human CENP-E; minimal human CENP-E motor; source: Sf9 cells (baculovirus), purified …
A word on the stoichiometry N: it is the number of molecules, sites or subunits per partner or assembly. Regarding B1, in data set [1], the “stoichiometry N” value was 2.

B2: CENP-E754-2mNeon (domain or fragment, human, UniProt Q02224 1-754, looked up)
chain: MAEEGAVAVCVRVRPLNSREESLGETAQVYWKTDNNVIYQVDGSKSFNFDRVFHGNETTKNVYEEIAAPIIDSAIQGYNGTIFAYGQTASGKTYTMMGSEDHLGVIPRAIHDIFQKIKKFPDREFLLRVSYMEIYNETITDLLCGTQKMKPLIIREDVNRNVYVADLTEEVVYTSEMALKWITKGEKSRHYGETKMNQRSSRSHTIFRMILESREKGEPSNCEGSVKVSHLNLVDLAGSERAAQTGAAGVRLKEGCNINRSLFILGQVIKKLSDGQVGGFINYRDSKLTRILQNSLGGNAKTRIICTITPVSFDETLTALQFASTAKYMKNTPYVNEVSTDEALLKRYRKEIMDLKKQLEEVSLETRAQAMEKDQLAQLLEEKDLLQKVQNEKIENLTRMLVTSSSLTLQQELKAKRKRRVTWCLGKINKMKNSNYADQFNIPTNITTKTHKLSINLLREIDESVCSESDVFSNTLDTLSEIEWNPATKLLNQENIESELNSLRADYDNLVLDYEQLRTEKEEMELKLKEKNDLDEFEALERKTKKDQEMQLIHEISNLKNLVKHAEVYNQDLENELSSKVELLREKEDQIKKLQEYIDSQKLENIKMDLSYSLESIEDPKQMKQTLFDAETVALDAKRESAFLRSENLELKEKMKELATTYKQMENDIQLYQSQLEAKKKMQVDLEKELQSAFNEITKLTSLIDGKVPKDLLCNLELEGKITDLQKELNKEVEENEALREEVILLSELKSLPS
notes: human CENP-E, N-terminal truncation with the motor domain and five predicted coiled-coils of the native stalk, ending at residue 754; The methods call it a dimeric motor; the self-association row is of one chain with another; also called truncated CENP-E; source: Sf9 cells (baculovirus), purified (HisTrap, Superose 6); not shown: mNeonGreen (2 x tandem), C-terminal, kept
Take B2: the binding result in data set [2] is “binds”.
